B1: 506 (protein)
chain: MAQGKVALEEHFAIPETLNDAADFVPSEYLKELQHRLLDIQDTRLKLMDKHEIETMILSLAAPAVQAIPDRVKAIEIARRANDFLAEEVAKRPDRFLAFAALPLQDPDAATEELQRCVNDLGFVGAMVNGFSQEGDGQTPLYYDLPQYRPFWGEVEKLDVPFYLHPRNPLPQDSRIYDGHPWLLGPTWAFAQETAVHALRLMASGLFDEHPRLNIILGHMGEGLPYMMYRIDHRIAWVKAPPDYPAKRRFMDYFLENFHITTSGNFRTQTLIDAILEIGADRILFSTDWPFENIDHAADWFNATSIAEADRVKIGRTNARRLFKLDGR
modifications: Dicamba decarboxylase variant
B2: 507 (protein)
chain: MAQGKVALEEHFAIPETLQDAADFVPSEYWKELQHRLLDIQDTRLKLMDKHEIETMILSLAAPAVQAIPDRVKAIEIARRANDFLAEEVAKRPGRFLAFAALPLQDVDAATEELQRCVNDLGFVGAMVNGFSQEGDGQTPLYYDLPQYRPFWGEVEKLDVPFYLHPRNPLPQDSRIYDGHPWLLGPTWAFAQETAVHALRLMASGLFDEHPRLNIILGHMGEGLPYMMYRIDHRIAWVKAPPDYPAKRRFMDYFLENFHITTSGNFRTQTLIDAILEIGADRILFSTDWPFENIDHAADWFNATSIAEADRVKIGRTNARRLFKLDGR
modifications: Dicamba decarboxylase variant
B3: 508 (protein)
chain: MAQGKVALEEHFAIPETLNDAAGFVPSEYWKELQHRLLDIQDTRLKLMDKHEIETMILSLAAPAVQAIPDRVKAIEIARRANDFLAEEVAKRPDRFLAFAALPLQDPDAATEELQRCVNDLGFVGALVNGFSQEGDGQTPLYYDLPQYRPFWGEVEKLDVPFYLHPRNPLPQDSRIYDGHPWLLGPTWAFAQETAVHALRLMASGLFDEHPRLNIILGHMGEGLPYMMYRIDHRIAWVKAPPDYPAKRRFMDYFLENFHITTSGNFRTQTLIDAILEIGADRILFSTDWPFENIDHAADWFNATSIAEADRVKIGRTNARRLFKLDGR
modifications: Dicamba decarboxylase variant
B4: 510 (protein)
chain: MAQGKVALEEHFAIPETLQDAAGFVPGDYWKELQHRLLDIQDTRLKEMDRHEIGTMVLSLAAPAVQAIPDRRKAIEIARRANDFLAEEVAKRPDRFLAFAALPLQDVDAATEELQRCVNDLGFVGAMVNGFSQEGDGQTPLYYDLPQYRPFWGEVEKLDVPFYLHPRNPLPQDARIYDGHPWLLGPTWAFAQETAVHALRLMASGLFDEHPRLNIILGHMGEGLPYMMYRIDHRIAWVKAPPDYPAKRRFMDYFLENFHITTSGNFRTQTLIDAILEIGADRILFSTDWPFENIDHAADWFAATSIAEADRVKIGRTNARRLFKLDGS
modifications: Dicamba decarboxylase variant
B5: 512 (protein)
chain: MAQGKVALEEHFAIPETLQDAAGFVPGDYWKELQHRLLDIQDTRLKEMDKHGIGTMVLSLAAPAVQAIPDRRKAIEIARRANDFLAEEVAKRPDRFLAFAALPLQDVDAATEELQRCVADLGFVGAMVNGFSQEGDGQTPLYYDLPQYRPFWGEVEKLDVPFYLHPRNPLPQDSRIYDGHPWLLGPTWAFAQETAVHALRLMASGLFDEHPRLNIILGHMGEGLPYMMYRIDHRIAWVKAPPDYPAKRRFMDYFLENFHITTSGNFRTQTLIDAILEIGADRILFSTDWPFENIDHAADWFNATSIADADRDKIGRTNARRLFKLDGR
modifications: Dicamba decarboxylase variant
B6: 511 (protein)
chain: MAQGKVALEEHFAIPETLQDAAGFVPGDYWKELQHRLLDIQDTRLKEMDKHGIGTMVLSLAAPAVQAIPDRRQAIELARRANDFLAEEVAKRPDRFLAFAALPLQDVDAATEELQRCVNDLGFVGAMVNGFSQEGDGQTPLYYDLPQYRPFWGEVEKLDVPFYLHPRNPLPQDSRIYDGHPWLLGPTWAFAQETAVHALRLMASGLFDEHPRLNIILGHMGEGLPYMMYRIDHRIAWVKAPPDYPAKRRFMDYFLENFHITTSGNFRTQTLIDAILEIGADRILFSTDWPFENIDHAADWFNATSIAEADRVKIGRTNARRLFKLDGR
modifications: Dicamba decarboxylase variant
B7: 518 (protein)
chain: MAQGLVALEEHFAIPETLNDAAGFVPGDYWKELQHRLLDIQDTRLKEMDKHEIGTMVLSLAAPAVQAIPDRRKAIELAKRANDFLAEEVAKRPDRFLAFAALPLQDVDAATEELQRCVADLGFVGAMVNGFSQEGDGQTPLYYDLPQYRPFWGEVEKLDVPFYLHPRNPLPQDSRIYDGHPWLLGPTWAFAQETAVHALRLMASGLFDEHPRLNIILGHMGEGLPYMMYRIDHRIAWVKAPPDYPAKRRFMDYFLENFHITTSGNFRTQTLIDAILEIGADRILFSTDWPFENIDHAADWFNATSIAEADRVKIGRTNARRLFKLDGR
modifications: Dicamba decarboxylase variant
B8: 514 (protein)
chain: MAQGKVALEEHFAIPETLQDAAGFVPGDYWKELQHRLLDIQDERLKEMDKHEIGTMILSLAAPAVQAIPDRRKAIELARRANDFLAEEVAKRPDRFLAFAALPLQDVDAATEELQRCVNDLGFVGAMVNGFSQEGDGQTPLYYDLPQYRPFWGEVEKLDVPFYLHPRNPLPQDSRIYDGHPWLLGPTWAFAQETAVHALRLMASGLFDEHPRLNIILGHMGEGLPYMMYRIDHRIAWVKAPPDYPAKRRFMDYFLENFHITTSGNFRTQTLIDAILEIGADRILFSTDWPFENIDHAADWFNATSIAEADRVKIGRTNARRLFKLDGR
modifications: Dicamba decarboxylase variant
B9: 517 (protein)
chain: MAQGKVALEEHFAIPETLQDAAGFVPGDYWKELQHRLLDIQDTRLKEMDKHGIGTMILSLAAPAVQAIPDRRKAIELARRANDFLAEEVAKRPDRFLAFAALPLQDVDAATEELQRCVNDLGFVGAMVNGFSQEGDGQTPLYYDLPQYRPFWGEVEKLDVPFYLHPRNPLPQDSRIYDGHPWLLGPTWAFAQETAVHALRLMASGLFDEHPRLNIILGHLGEGLPYMMYRIDHRIAWVKAPPDYPAKRRFMDYFLENFHITTSGNFRTQTLIDAILEIGADRILFSTDWPFENIDHAADWFNATSIAEADRVKIGRTNARRLFKLDVR
modifications: Dicamba decarboxylase variant
B10: 513 (protein)
chain: MAQGKVALEEHFAIPETLQDAAGFVPGDYWKELQHRLLDIQDTRLKEMDKHEIGTMVLSLAAPAVQAIPDRRQAIELARRANDFLAEEVAKRPDRFLAFAALPLQDVDAATEELQRCVNDLGFVGAMVNGFSQEGDGQTPLYYDLPQYRPFWGEVEKLDVPFYLHPRNPLPQDSRIYDGHPWLLGPTWAFAQETAVHALRLMASGLFDEHPRLNIILGHMGEGLPYMMYRIDHRIAWVKAPPDYPAKRRFMDYFLENFHITTSGNFRTQTLIDAILEIGADRILFSTDWPFENIDHAADWFNATSIAEADRVKIGRTNARRLFKLDGR
modifications: Dicamba decarboxylase variant
B11: 519 (protein)
chain: MAQGKVALEEHFAIPETLQDAAGFVPGDYWKELQHRLLDIQDTRLKEMDKHEIGTMVLSLAAPAVQAIPDRRKAIEIARRANDFLAEEVAKRPDRFLAFAALPMQDPEAATSELQRCVNDLGFVGAMVNGFSQEGDGQTPLYYDLPQYRPFWGEVEKLDVPFYLHPRNPLPQDSRIYDGHPWLLGPTWAFAQETAVHALRLMASGLFDEHPRLNIILGHMGEGLPYMMYRIDHRIAWVKAPPDYPAKRRFMDYFLENFHITTSGNFRTQTLIDAILEIGADRILFSTDWPFENIDHAADWFNATSIAEADRVKIGRTNARRLFKLDGR
modifications: Dicamba decarboxylase variant
B12: 515 (protein)
chain: MAQGKVALEEHFAIPETLQDAAGFVPGDYWKELQHRLLDIQDTRLKEMDKHEIGTMVLSLAAPAVQAIPDRRKAIEIARRANDFLAEEVAKRPDRFLAFAALPLQDVDAATEELQRCVNDLGFVGAMVNGFSQEGDGQTPLYYDLPQYRPFWGEVEKLDVPFYLHPRNPLPQDSRIYDGHPWLLGPTWAFAQETAVHALRLMASGLFDEHPRLNIILGHMGEGLPYMMYRIDHRIAWVKAPPDYPAKRRFMDYFLENFHITTSGNFRTQTLIDAILEIGADRILFSTDWPFENIDHAADWFNATSIAEADRVKIGRTNARRLFKLDGR
modifications: Dicamba decarboxylase variant
B13: 509 (protein)
chain: MAQGKVALEEHFAIPETLQDAAGFVPGDYWKELQHRLLDIQDTRLKEMDKHEIGTMILSLAAPAVQAIPDRRKAIEIARRANDFLAEEVAKRPDRFLAFAALPLQDVDAATEELQRCVNDLGFVGAMVNGFSQEGDGQTPLYYDLPQYRPFWGEVEKLDVPFYLHPRNPLPQDSRIYDGHPWLLGPTWAFAQETAVHALRLMASGLFDEHPRLNIILGHMGEGLPYMMYRIDHRIAWVKAPPDYPAKRRFMDYFLENFHITTSGNFRTQTLIDAILEIGADRILFSTDWPFENIDHAADWFNATSIAEADRVKIGRTNARRLFKLDGR
modifications: Dicamba decarboxylase variant
B14: 516 (protein)
chain: MAQGKVALEEHFAIPETLQDAAGFVPGDYWKELQHRLLDIQDTRLKEMDKHEIGTMILSLAAPAVQAIPDRRKAIEIARRANDFLAEEVAKRPDRFLAFAALPLQDVDAATEELQRCVNDLGFVGAMVNGFSQEGDGQTPLYYDLPQYRPFWGEVEKLDVPFYLHPRNPLPQDARIYDGHPWLLGPTWAFAQETAVHALRLMASGLFDEHPRLNIILGHMGEGLPYMMYRIDHRIAWVKAPPDYPAKRRFMDYFLENFHITTSGNFRTQTLIDAILEIGADRILFSTDWPFENIDHAADWFNATSIAEADRVKIGRTNARRLFKLDGR
modifications: Dicamba decarboxylase variant

Consider 14 molecules from patent US20160040149A1, “Compositions Having Dicamba Decarboxylase Activity and Methods of Use” (priority 2013, published 2016).

The first experiment can be described thus: DNA shuffling libraries: 14CO2 capturing assay in 384-well format, fold activity of backbone (Megatable 2). Particulars: relative to backbone SEQ ID NO: 380 (DDEC0301).
As to B1, the “Fold Activity” value is listed as 1.1 fold. Regarding B2, the “Fold Activity” value is reported as 1.8 fold. B3: the “Fold Activity” value is recorded as 1.0 fold.

Still in this experiment, the particulars now being: relative to backbone SEQ ID NO: 509 (DDEC0810).
Turning to B4, the “Fold Activity” value came out at 1.0 fold. On to B5, for which the “Fold Activity” value was 1.2 fold.

Turning to B6, the “Fold Activity” value is reported as 1.3 fold. Take B7: the “Fold Activity” value is 1.5 fold. Turning to B8, the “Fold Activity” value was found to be 1.1 fold.

For B9, the “Fold Activity” value turned out to be 1.2 fold.

For the molecule B10, the “Fold Activity” value amounted to 1.2 fold. For the molecule B11, the “Fold Activity” value is given as 1.1 fold. Regarding B12, the “Fold Activity” value was 1.0 fold. In the case of B13, the “Fold Activity” value worked out at 1.0 fold. B14: the “Fold Activity” value was 1.1 fold.
